Experimental findings from US20260167721A1 (ABLEXIS, published 2026) are described below.

For assay [1], the target named is T1, recombinant CD3 proteins (UniProt P07766 23-126).
T1 construct: elsewhere it uses human CD3 E/D and E/G heterodimers
The assay is described as follows: Octet BLI, recombinant CD3; Full R^2 0.9991.

Assay [2] deals with T1, recombinant CD3 proteins. The assay can be described thus: Octet BLI, recombinant CD3; Full R^2 0.603*.
In assay [3] the target is T1, recombinant CD3 proteins. The assay is described as follows: Octet BLI, recombinant CD3; Full R^2 0.9554. For orientation: Biolayer interferometry detects binding as a change in optical thickness at a sensor tip.

A word on the Kd: it is the concentration at which binding is half-saturated. As usually defined, the koff is the first-order rate constant of dissociation. In general, kon refers to the rate constant with which the complex forms.

T1 sequence (P07766 23-126): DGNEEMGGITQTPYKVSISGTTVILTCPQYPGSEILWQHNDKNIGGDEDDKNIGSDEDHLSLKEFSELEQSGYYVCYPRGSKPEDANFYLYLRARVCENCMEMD

B1: CD3 × CD33-BspAb97 (bispecific antibody)
chain 1: SYELTQPPSVSVSPGQTARITCSGDALPKKYAYWYQQKSGQAPVLVIYEDSKRPSGIPERFSGSSSGTMATLTISGAQVEDEADYYCYSTDSSGNHWVFGCGTKLTVLGGGGSGGGGSGGGGSGGGGSEVQLVESGGGLVKPGGSLRLSCAASGFTFSNYYMNWVRQAPGKCLERVSSISSSSNYIYYADSVKGRFTISRDNAKNSLYLQMNSLRAEDTAVYYCARDRRELPLDYWGQGTVVTVSSDKTHTCPPCPAPEFEGGPSVFLFPPKPKDTLMISRTPEVTCVVVDVSHEDPEVKFNWYVDGVEVHNAKTKPREEQYNSTYRVVSVLTVLHQDWLNGKEYKCKVSNKALPASIEKTISKAKGQPREPQVYTLPPCREEMTKNQVSLWCLVKGFYPSDIAVEWESNGQPENNYKTTPPVLDSDGSFFLYSKLTVDKSRWQQGNVFSCSVMHEALHNHYTQKSLSLSPGK
chain 2: EVQLVQSGAEVKKPGSSVKVSCKASGYTITDSNIHWVRQAPGQSLEWIGYIYPYNGGTDYNQKFKNRATLTVDNPTNTAYMELSSLRSEDTAFYYCVNGNPWLAYWGQGTLVTVSSASTKGPSVFPLAPSSKSTSGGTAALGCLVKDYFPEPVTVSWNSGALTSGVHTFPAVLQSSGLYSLSSVVTVPSSSLGTQTYICNVNHKPSNTKVDKRVEPKSCDKTHTCPPCPAPEFEGGPSVFLFPPKPKDTLMISRTPEVTCVVVDVSHEDPEVKFNWYVDGVEVHNAKTKPREEQYNSTYRVVSVLTVLHQDWLNGKEYKCKVSNKALPASIEKTISKAKGQPREPQVCTLPPSREEMTKNQVSLSCAVKGFYPSDIAVEWESNGQPENNYKTTPPVLDSDGSFFLVSKLTVDKSRWQQGNVFSCSVMHEALHNRFTQKSLSLSPGK
chain 3: DIQLTQSPSTLSASVGDRVTITCRASESLDNYGIRFLTWFQQKPGKAPKLLMYAASNQGSGVPSRFSGSGSGTEFTLTISSLQPDDFATYYCQQTKEVPWSFGQGTKVEVKRTVAAPSVFIFPPSDEQLKSGTASVVCLLNNFYPREAKVQWKVDNALQSGNSQESVTEQDSKDSTYSLSSTLTLSKADYEKHKVYACEVTHQGLSSPVTKSFNRGEC
As to B1, in the assay with recombinant CD3 proteins [1], the dissociation constant (Kd) is 276 nM, the koff came out at 0.0854 s⁻¹ and the kon was 309000 M⁻¹ s⁻¹.

B2: CD3 × CD33-BspAb99 (bispecific antibody)
chain 1: not shown
chain 2: B1 chain 2
chain 3: B1 chain 3
Consider B2, for which, in the assay with recombinant CD3 proteins [2], the equilibrium dissociation constant (Kd) is 30.7 nM, the koff was found to be 0.00421 s⁻¹ and the kon was 137000 M⁻¹ s⁻¹.

B3: CD3 × CD33-BspAb98 (bispecific antibody)
chain 1: NFMLTQPHSVSESPGKTVTISCTRSSGSIASNYVQWYQQRPGSSPTTVIYEDNQRPSGVPDRFSGSIDSSSNSASLTISGLKTEDEADYYCQSYDSSNRVFGCGTKLTVLGGGGSGGGGSGGGGSGGGGSEVHLVESGGGLVKPGGSLRLSCAASGFTFSRYSMNWVRQAPGKCLEWVSSISRSSSYIYYADSVKGRFTISRDNAKNSLYLQMNSLRAEDTAVYYCAREPRTLGMDYWGQGILVTVSSDKTHTCPPCPAPEFEGGPSVFLFPPKPKDTLMISRTPEVTCVVVDVSHEDPEVKFNWYVDGVEVHNAKTKPREEQYNSTYRVVSVLTVLHQDWLNGKEYKCKVSNKALPASIEKTISKAKGQPREPQVYTLPPCREEMTKNQVSLWCLVKGFYPSDIAVEWESNGQPENNYKTTPPVLDSDGSFFLYSKLTVDKSRWQQGNVFSCSVMHEALHNHYTQKSLSLSPGK
chain 2: B1 chain 2
chain 3: B1 chain 3
Turning to B3, in the assay with recombinant CD3 proteins [3], the Kd turned out to be 5.1 nM, the dissociation rate constant (koff) was determined as 0.00333 s⁻¹ and the on-rate (kon) came to 653000 M⁻¹ s⁻¹.
